# Patent publication CN115819582A (HEFEI TIANGANG IMMUNOLOGY PHARMACEUTICAL CO LTD, dated 2023)
# Molecular target: T1, 重组人PVRIG-人IgG1 Fc融合蛋白 (human)
# T1 construct: The Fc gene was added at the C-terminus of the gene for the PVRIG extracellular domain; no linker or signal peptide is stated; also called 人PVRIG重组蛋白
# Assay: ELISA, coated PVRIG-Fc 0.5 ug/ml, anti-mouse IgG-HRP
# T1 sequence (chain, as listed by the source limits assumed): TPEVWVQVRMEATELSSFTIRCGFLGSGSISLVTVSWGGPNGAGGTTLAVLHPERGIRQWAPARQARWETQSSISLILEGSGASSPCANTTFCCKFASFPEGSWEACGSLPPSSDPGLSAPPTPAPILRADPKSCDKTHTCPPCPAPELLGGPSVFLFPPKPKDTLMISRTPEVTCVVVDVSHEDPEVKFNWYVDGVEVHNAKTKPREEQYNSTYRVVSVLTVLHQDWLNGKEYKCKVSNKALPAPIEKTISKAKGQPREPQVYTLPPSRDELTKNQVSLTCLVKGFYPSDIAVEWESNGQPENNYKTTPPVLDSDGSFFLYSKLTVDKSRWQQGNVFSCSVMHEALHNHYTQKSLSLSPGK
row,binding result,Binder
1,binds,"鼠单抗mAb002 (antibody, mouse IgG1, kappa, V domains shown, Mouse monoclonal antibody from a hybridoma; also called PVRIG抗体) VH: EVQLQQSGPELVKPGASMKISCKASGYSFTGYTMNWVKQSPGKNLEWIGLITPYNNDTSYNQKFKGKATLTVDKSSSTAYMELLSLTSEDSAVYYCARWVYGNYVGWFAYWGQGTLVTVSA VL: DIVMTQSHKFMSTSVGDRVNITCKASQDVSTSVTWYQQKPGQSPKLLIYSTSYRYTGVPDRFTGSGSGTDFTFTISSVQAEDLAVYYCQQHYSTPWTFGGGTKLEIKR"
2,binds,"鼠单抗mAb004 (antibody, mouse IgG1, kappa, Mouse monoclonal antibody from a hybridoma; also called PVRIG抗体) heavy: QVQLQQPGAELVKPGTSVKLSCKASGYNFTSYWINWVKLRPGQGLEWIGDIYPGNYSPNYNEKFLNKATLTTDTASSTAYMQLNNLASEDSAVYYCASGYFDYWGQGTTLIVSAAKTTPPSVYPLAPGSAAQTNSMVTLGCLVKGYFPEPVTVTWNSGSLSSGVHTFPAVLQSDLYTLSSSVTVPSSTWPSETVTCNVAHPASSTKVDKKIVPRDCGCKPCICTVPEVSSVFIFPPKPKDVLTITLTPKVTCVVVDISKDDPEVQFSWFVDDVEVHTAQTQPREEQFNSTFRSVSELPIMHQDWLNGKEFKCRVNSAAFPAPIEKTISKTKGRPKAPQVYTIPPPKEQMAKDKVSLTCMITDFFPEDITVEWQWNGQPAENYKNTQPIMDTDGSYFVYSKLNVQKSNWEAGNTFTCSVLHEGLHNHHTEKSLSHSPGK light: DIVMTQSPSSLSVSAGEEVIMSCKSSQSLLNSGTQKNYLAWYQQKPGQPPKLLIYGTSTRESGVPDRFTGSGSGTDFTLTINNVQAEDLAIYYCQNDHSYPYTFGGGTKLEIKRADAAPTVSIFPPSSEQLTSGGASVVCFLNNFYPKDINVKWKIDGSERQNGVLNSWTDQDSKDSTYSMSSTLTLTKDEYERHNSYTCEATHKTSTSPIVKSFNRNEC"
3,binds,"鼠单抗mAb001 (antibody, mouse IgG1, kappa, V domains shown, Mouse monoclonal antibody from a hybridoma; also called PVRIG抗体) VH: EVQLQQSGPDLVKTGASVKISCKAVGYSFTGYNVHWVKQSHDKSLEWIGYIHFYTGATDYNQKFKDKATFTVDASSNTAYMQFNSLTSEDSAVYYCAIMRWAVDYWGQGTSVTVSS VL: QIVLTQSPTIMSASPGETVTMTCSVSSSVNYIYWYQQKSGASPKRWIYDTSKLASGVPSRFSGSGSGASYSLTISNMEAEDAATYYCQQWSSNPYTFGGGTKLEIKR"
4,binds,"鼠单抗mAb003 (antibody, mouse IgG1, kappa, V domains shown, Mouse monoclonal antibody from a hybridoma; also called PVRIG抗体) VH: EVQLQQSGPELVKPGASVRITCKASGYTFTDYNIHWVKQSHGKSLEWIGYIYPYNGGSGYNQKFKSQATLTVDTSSTTAYMEIRSLTSEDSAVYYCAREEVRRDEALDFWGQGTSVTVSS VL: DIQMTQSPASLSVSVGETVNITCRVSENIYSNLAWYQQKQGKSPQLLVYGASNLPDGVPSRFSGSGSGTQYSLKINTLQSEDFGTYYCQHFWGTPYTFGGGTKLEIKR"
